# Values quoted from earlier work as cited in patent US20160354395A1, “INFANT FORMULAS CONTAINING A 2-FUCOSYLATED OLIGOSACCHARIDE FOR TREATMENT OR PREVENTION OF INFLUENZA INFECTION” (NESTEC S.A., priority 2013, published 2016).
# System: influenza virus
# Settings: mice
molecule,measurement,setting,value
"Lactoferrin: a protein of the transferrin family, present in milk; given in the diet at 25 g/kg (protein, UniProt P24627 20-708, looked up) Lactotransferrin: APRKNVRWCTISQPEWFKCRRWQWRMKKLGAPSITCVRRAFALECIRAIAEKKADAVTLDGGMVFEAGRDPYKLRPVAAEIYGTKESPQTHYYAVAVVKKGSNFQLDQLQGRKSCHTGLGRSAGWIIPMGILRPYLSWTESLEPLQGAVAKFFSASCVPCIDRQAYPNLCQLCKGEGENQCACSSREPYFGYSGAFKCLQDGAGDVAFVKETTVFENLPEKADRDQYELLCLNNSRAPVDAFKECHLAQVPSHAVVARSVDGKEDLIWKLLSKAQEKFGKNKSRSFQLFGSPPGQRDLLFKDSALGFLRIPSKVDSALYLGSRYLTTLKNLRETAEEVKARYTRVVWCAVGPEEQKKCQQWSQQSGQNVTCATASTTDDCIVLVLKGEADALNLDGGYIYTAGKCGLVPVLAENRKSSKHSSLDCVLRPTEGYLAVAVVKKANEGLTWNSLKDKKSCHTAVDRTAGWNIPMGLIVNQTGSCAFDEFFSQSCAPGADPKSRLCALCAGDDQGLDKCVPNSKEKYYGYTGAFRCLAEDVGDVAFVKNDTVWENTNGESTADWAKNLNREDFRLLCLDGTRKPVTEAQSCHLAVAPNHAVVSRSDRAAHVKQVLLHQQALFGKNGKNCPDKFCLFKSETKNLLFNDNTECLAKLGGRPTYEEYLGTEYVTAIANLKKCSTSPLLEACAFLTR",number of infiltrated leukocytes recovered from bronchoalveolar lavage fluid,day 6,significantly lower
same,lung consolidation score,"day 6 after infection, vs control mice given water",significantly lower
